Measurements: patent US20050069569A1
Where two headings read alike, the source gives them in different places.

Columns and labels:
[1] = molecular target: secPHEX (soluble, secreted form of recombinant human PHEX) (human) (UniProt P78562); test: cell-based or functional assay
PTHrP107-139 (human) [2] = tested on: T1, PTHrP107-139 (human)
T1 sequence: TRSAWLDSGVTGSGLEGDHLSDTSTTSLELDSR

PTHrP107-139 (human) [3] = molecular target: T2, PTHrP107-139 (human)
T2 chain: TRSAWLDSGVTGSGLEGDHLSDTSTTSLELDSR

“osteocalcin (human, extracted from bones, with Gla residues) (from UniProt P02818 52-100)” gave a 50% inhibition of secPHEX-mediated PTHrP107-139 hydrolysis (HPLC) [1] of 3.6 µM and an inhibition of secPHEX activity at 5×10^-6 M osteocalcin [1] of 75%.

For “secPHEX (soluble, secreted form of recombinant human PHEX)”, the “degradation of PTHrP107-139 (HPLC)” value (PTHrP107-139 (human) [2]) was “approximately 75 to 80% degradation of the peptide was observed”.

B1: secPHEXE581V (inactive soluble human PHEX with Glu 581 replaced by Val) (protein)
chain: QGLLSLQAKQEYCLKPECIEAAAAILSKVNLSVDPCDNFFRFACDGWISNNPIPEDMPSYGVYPWLRHNVDLKLKELLEKSISRRRDTEAIQKAKILYSSCMNEKAIEKADAKPLLHILRHSPFRWPVLESNIGPEGVWSERKFSLLQTLATFRGQYSNSVFIRLYVSPDDKASNEHILKLDQATLSLAVREDYLDNSTEAKSYRDALYKFMVDTAVLLGANSSRAEHDMKSVLRLEIKIAEIMIPHENRTSEAMYNKMNISELSAMIPQFDWLGYIKKVIDTRLYPHLKDISPSENVVVRVPQYFKDLFRILGSERKKTIANYLVWRMVYSRIPNLSRRFQYRWLEFSRVIQGTTTLLPQWDKCVNFIESALPYVVGKMFVDVYFQEDKKEMMEELVEGVRWAFIDMLEKENEWMDAGTKRKAKEKARAVLAKVGYPEFIMNDTHVNEDLKAIKFSEADYFGNVLQTRKYLAQSDFFWLRKAVPKTEWFTNPTTVNAFYSASTNQIRFPAGELQKPFFWGTEYPRSLSYGAIGVIVGHVFTHGFDNNGRKYDKNGNLDPWWSTESEEKFKEKTKCMINQYSNYYWKKAGLNVKGKRTLG
B1 was tested, and the “degradation of PTHrP107-139 (HPLC)” value (PTHrP107-139 (human) [3]) was “purified secPHEXE581V failed to degrade PTHrP107-139 under similar conditions”.
